# B1: βig-h3: recombinant human βig-h3 protein that expresses all of four fas-1 domains; biotinylated form used in binding assay (protein)
# chain: YQRKICGKSTVISYECCPGYEKVPGEKGCPAALPLSNLYETLGVVGSTTTQLYTDRTEKLRPEMEGPGSFTIFAPSNEAWASLPAEVLDSLVSNVNIELLNALRYHMVGRRVLTDELKHGMTLTSMYQNSNIQIHHYPNGIVTVNCARLLKADHHATNGVVHLIDKVISTITNNIQQIIEIEDTFETLRAAVAASGLNTMLEGNGQYTLLAPTNEAFEKIPSETLNRILGDPEALRDLLNNHILKSAMCAEAIVAGLSVETLEGTTLEVGCSGDMLTINGKAIISNKDILATNGVIHYIDELLIPDSAKTLFELAAESDVSTAIDLFRQAGLGNHLSGSERLTLLAPLNSVFKDGTPPIDAHTRNLLRNHIIKDQLASKYLYHGQTLETLGGKKLRVFVYRNSLCIENSCIAAHDKRGRYGTLFTMDRVLTPPMGTVMDVLKGDNRFSMLVAAIQSAGLTETLNREGVYTVFAPTNEAFRALPPRERSRLLGDAKELANILKYHIGDEILVSGGIGALVRLKSLQGDKLEVSLKNNVVSVNKEPVAEPDIMATNGVVHVITNVLQPPANRPQERGDELADSALEI
# What was measured:
# HUVECs [1] = assay: HUVECs adhesion to plates coated with βig-h3, its fas-1 domains or mutants; type: cell-based, human; details: 10 μg/ml protein coated on plate; attached cells by absorbance at 405 nm; control BSA
# Procedure: Cell adhesion assay was performed according to the method described by Kim, J.-E. et al., J. Biol. Chem., 277:4615946165, 2002. For this purpose, 10 μg/ml of each of the recombinant proteins (βig-h3 His-β-b, βig-h3 D-I, βig-h3 D-II, βig-h3 D-III and βig-h3 D-IV) prepared in Example 1 was placed into a flat-bottomed 96-well ELISA (enzyme-linked immunosorbent assay) plate (Costar, Corning Inc., NY) and then incubated overnight at 4° C., to coat the surface of the plate. As a control, 2% BSA was coated on the plate. Then, the plate was treated with PBS (phosphate-buffered saline) containing 2% BSA, and blocked at room temperature for one hour.
# Meanwhile, HUVECs (human umbilical vein endothelial cells; Clonetics, San Diego, Calif.) were incubated in EGM medium (Clonetics, San Diego, Calif.) containing 2% FBS (Fetal Bovine Serum) under a condition of 37° C. and 5% CO2. The incubated cells were suspended in medium at a density of 3×10^5 cells/ml, and 0.1 ml of the cell suspension was added to each well of the plate. Next, the cells were incubated at 37° C. for 30 minutes and washed one time with PBS buffer to remove cells which had not been attached to the plate. Attached cells were added with 50 mM citrate buffer (pH 5.0) containing 3.75 mM p-nitrophenyl-N-acetyl β-D-glycosaminide and 0.25% Triton X-100, and incubated at 37° C. for one hour. Thereafter, 50 mM glycine buffer (pH 10.4) containing 5 mM EDTA was added to block the activity of the enzyme. The absorbance was measured at a 405-nm in a Bio-Rad model 550 microplate reader. Here, the higher the number of cells adhered to the plate, the higher the absorbance.
# Each of the deletion mutants was generated by PCR using a cDNA template encoding the fourth fas-1 domain (SEQ ID NO: 5) (Kim, J.-E. et al., J. Biol. Chem., 275:30907-30915, 2000). Each of the PCR-amplified DNA fragments was cloned into the EcoRV/Xhol sites of the pET-29b(+) vector (Novagen; Madison, Wis.). The mutations were confirmed by sequence analysis, and the deletion mutants were expressed and purified according to a prior method (Kim, J.-E., et al., J. Cell. Biochem., 77:169-178, 2000). Thereafter, the cell adhesion activity of each of the deletion mutants was tested in the same manner as in Example 2.
# Previously, the present inventors reported that an YH motif, which contains tyrosine-histidine residues highly conserved in the fragment corresponding to amino acids 548-614 of SEQ ID NO: 1, and several leucine and isoleucine residues adjacent to the tyrosine-histidine residues, binds to the αvβ5 integrin (Kim, J.-E., et al., J. Biol. Chem., 277:46159-46165, 2002). Thus, the present inventors suspected that the YH motif may also interact with the αvβ3 integrin to mediate endothelial cell adhesion. For this reason, in the present invention, the tyrosine-histidine residues conserved in the fas-1 domains, and/or the leucine and isolucine residues adjacent to the tyrosine-histidine residues, were substituted in various combinations by alanine or serine (Kim, J.-E., et al., J. Biol. Chem. 277:4615946165, 2002)(see FIG. 4b). The amino acid sequences of the prepared YH motif mutants are shown in SEQ ID NO: 17 to SEQ ID NO: 22. The mutations were confirmed by sequence analysis. Then, the substitution mutants were expressed and purified according to a known method (Kim, J.-E., et al., J. Cell. Biochem., 77:169-178, 2000). The substitution mutants were tested for their cell adhesion activity according to the same manner as in Example 2.
# HUVECs [2] = assay: HUVECs migration assay in transwell plate coated with βig-h3; type: cell-based, human; details: 10 μg/ml βig-h3 His-β-b coated; 6-8 hours; data not shown
# Procedure: Firstly, to examine whether βig-h3 is involved in the migration of endothelial cells, the present inventors performed cell migration assay. The cell migration assay was performed in a transwell plate (8 μm pore size, Costar, Cambridge, Mass.). The undersurface of the membrane was coated with the recombinant βig-h3 His-β-b protein (10 μg/ml) prepared in Example 1 at 4° C., and then, blocked for 1 hour at room temperature with PBS buffer containing 2% BSA. Meanwhile, HUVECs were added with an anti-αvβ3 antibody (LM609) or an anti-αvβ5 antibody (P1F6) and preincubated at 37° C. for 30 minutes. A control was added with mouse IgG. Then, the HUVECs preincubated with the antibody were suspended in medium at a density of 3×10^5 cells/ml, and 0.1 ml of the cell suspension was added to the upper compartment of the filter. The cells were allowed to migrate at 37° C. for 6-8 hours.
# Migration was terminated by removing the cells from the upper compartment of the filter with a cotton swab. The filters were fixed with 8% glutaraldehyde and stained with crystal violet. The extent of cell migration was determined by light microscope, and within each well, cell counting was done in nine randomly selected fields HPF (Microscopic high power fields, ×200).
# Then, the present inventors examined whether the migration of endothelial cells is inhibited by the YH18 synthetic peptide. […]
molecule,measurement,setting,value
B1,endothelial cell (HUVECs) adhesion activity,HUVECs [1],mediated the adhesion of endothelial cells
same,migration of HUVECs in transwells whose undersurface was coated with βig-h3,HUVECs [2],enhanced

# From patent US7919464B2, “Use of a peptide that interacts with αvβ3 integrin of endothelial cell” (Kyungpook National University Industry-Academic Cooperation …, priority 2003, dated 2011)
